The record followed here is article PMC4100928, “Evolutionary Divergence in the Catalytic Activity of the CAM-1, ROR1 and ROR2 Kinase Domains” (PLoS ONE, 2014).

Numbering of substitutions follows the chain as printed. In names and notes the source's numbering stands.

The target of series [1] is T1, ROR1 ICD (Homo sapiens, UniProt Q01973, C482G).
T1 sequence (Q01973 428-937 C482G): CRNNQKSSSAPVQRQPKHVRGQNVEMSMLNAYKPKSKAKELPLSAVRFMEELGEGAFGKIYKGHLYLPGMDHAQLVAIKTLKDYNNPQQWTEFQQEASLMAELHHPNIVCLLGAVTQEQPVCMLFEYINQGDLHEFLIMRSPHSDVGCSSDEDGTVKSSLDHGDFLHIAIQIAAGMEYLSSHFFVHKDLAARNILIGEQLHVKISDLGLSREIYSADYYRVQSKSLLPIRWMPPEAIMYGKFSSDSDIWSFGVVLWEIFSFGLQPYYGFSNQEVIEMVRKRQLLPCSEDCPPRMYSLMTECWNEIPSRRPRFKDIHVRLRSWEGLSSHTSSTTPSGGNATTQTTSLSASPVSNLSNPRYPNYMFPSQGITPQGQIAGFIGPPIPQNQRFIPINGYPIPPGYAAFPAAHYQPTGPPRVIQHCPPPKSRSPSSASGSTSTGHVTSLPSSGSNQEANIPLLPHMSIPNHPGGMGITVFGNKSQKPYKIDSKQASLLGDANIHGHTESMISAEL
As to the kind of experiment: [gamma-32P]ATP phosphocellulose paper binding assay, initial rates. The class given is biochemical. Particulars: 20 mM Mg2+ or 5 mM Mn2+; 5 mM activation loop peptide; 20 °C; limit of assay. The source says: (§1) [gamma-32P]ATP phosphocellulose paper binding assay, initial rates on ROR1 ICD

Series [2] concerns the target T2, ROR1 ICD (Homo sapiens, UniProt Q01973).
T2 sequence (Q01973 428-937): T1 sequence (Q01973 428-937 C482G) with G55C
The description is as above. Particulars: 20 mM Mg2+ or 5 mM Mn2+; 5 mM activation loop peptide; 20 °C; limit of assay. The class given is biochemical.
From the text: as §1

The target in the next series is T3, MuSK ICD (Homo sapiens, UniProt O15146).
T3 sequence (O15146 519-869): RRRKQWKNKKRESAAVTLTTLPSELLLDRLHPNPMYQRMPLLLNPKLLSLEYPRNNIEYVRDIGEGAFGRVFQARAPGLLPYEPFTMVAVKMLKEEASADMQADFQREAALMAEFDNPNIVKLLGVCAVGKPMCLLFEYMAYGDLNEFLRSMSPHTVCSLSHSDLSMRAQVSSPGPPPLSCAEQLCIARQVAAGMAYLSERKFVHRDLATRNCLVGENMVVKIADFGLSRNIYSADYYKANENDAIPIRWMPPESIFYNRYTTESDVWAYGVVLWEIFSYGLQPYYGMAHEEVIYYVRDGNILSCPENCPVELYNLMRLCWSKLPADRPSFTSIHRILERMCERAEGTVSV
The series is described as follows: autophosphorylation, anti-phosphotyrosine immunoblot. The class given is biochemical. The following applies: 2 mM ATP, 20 mM MgCl2, 0.2 mM orthovanadate, about 18 h at 4 °C. On the technique in general: Immunoblotting shows a protein as a band on a membrane.

Substrate in series [3]: Nc1ncnc2c1ncn2[C@@H]1O[C@H](COP(=O)(O)OP(=O)(O)OP(=O)(O)O)[C@@H](O)[C@H]1O
As to the kind of experiment: [gamma-32P]ATP phosphocellulose paper binding assay, initial rates. Format: biochemical, Caenorhabditis elegans. Particulars: 5 mM activation loop peptide, 20 °C. An excerpt: [gamma-32P]ATP phosphocellulose paper binding assay, initial rates on CAM-1 ICD

Substrate in series [4]: Nc1ncnc2c1ncn2[C@@H]1O[C@H](COP(=O)(O)OP(=O)(O)OP(=O)(O)O)[C@@H](O)[C@H]1O
The series is described as above. The class given is biochemical, Homo sapiens. Particulars: 20 mM Mg2+ or 5 mM Mn2+, 5 mM activation loop peptide, 20 °C, limit of assay. The source says:
[gamma-32P]ATP phosphocellulose paper binding assay, initial rates on ROR2 ICD

Where [5] appears, read: 20 mM Mg2+ or 5 mM Mn2+, limit of assay.
Setting [6] is: phosphorylated enzyme (pre-incubated with ATP/Mg2+) 10 µM, 20 mM Mg2+.
Where [7] appears, read: unphosphorylated enzyme 10 µM, 20 mM Mg2+.

Consider `Nc1ncnc2c1ncn2[C@@H]1O[C@H](COP(=O)(O)OP(=O)(O)OP(=O)(O)O)[C@@H](O)[C@H]1O` [ATP], for which the Km on ROR1 ICD [1] and at ROR1 ICD [2] was more than 15 mM in each case. Besides, on MuSK ICD, the “autophosphorylation, anti-phosphotyrosine immunoblot” value was “ICDs of receptors ROR1, ROR2, CAM-1 and MuSK were incubated overnight”.

B1: CAM-1 ICD (Caenorhabditis elegans; K624R) (protein)
chain: RAKKKSQKTRHQNAHCSSAPSVINSAANSAYYRKLNGTSTPIMGRVPPHVEMTSLLPSAQHLGPPPYPMDQHLQQARRFPSQEPIDDNSYKVFEITPSQLSVREKIGEGQFGVVHSGIYTSGLFAPEPMAVAVRKCRHDATNAERAQLEQEIRAVATFDHPNVIKLIGVCYMDNSLLAVFEYMVHGDLHELLKVRVPPADHDMGGITEANAEFLYIATQIALGMEYLASMSFVHRDLATRNCLVGDTRTIKIADFGLMRTSYGSDYYKMLHRSWMPVRWMSKEAIEQGRFSEASDVWSFGVTLWEIWSFGRQPYEGASNQQVIELVANRHLLECPHNCPTNIYSLMVECWHENIERRPTFSEIRSRLQSWSLASPAHSILQQHNNRAGSHSGSSGAGRPPTHQRGYPSQKLHRRVEGASPLMKRHDANYAYSEDGDSD
For B1, in series [3] (20 mM Mg2+), the Michaelis constant (Km) was determined as 6.69 ± 1.12 mM, the kcat turned out to be 0.00333 ± 0.00033 s⁻¹ and the catalytic efficiency (kcat/Km) was 0.5 M⁻¹ s⁻¹.

B2: CAM-1 ICD (Caenorhabditis elegans; G599C) (protein)
chain: B1 chain with G109C, R134K
B2: in series [3] (setting [5]), the kcat is less than 8.3e-06 s⁻¹ and the kcat/Km is less than 0.0005 M⁻¹ s⁻¹.

B3: CAM-1 ICD (Caenorhabditis elegans) (protein)
chain: B1 chain with R134K
For B3, in series [3] (setting [6]), the Km turned out to be 3.35 ± 0.57 mM, the kcat worked out at 0.0422 ± 0.003 s⁻¹ and the kcat/Km was determined as 12.7 M⁻¹ s⁻¹. Further, in series [3] (setting [7]), the Km is 3.53 ± 0.34 mM, the kcat is 0.0438 ± 0.00183 s⁻¹ and the kcat/Km was found to be 12.5 M⁻¹ s⁻¹.

B4: CAM-1 ICD (Caenorhabditis elegans; D744N) (protein)
chain: B1 chain with R134K, D254N
As to B4, in series [3] (setting [5]), the kcat was less than 8.3e-06 s⁻¹ and the kcat/Km is less than 0.0005 M⁻¹ s⁻¹.

B5: CAM-1 ICD (Caenorhabditis elegans; G599D) (protein)
chain: B1 chain with G109D, R134K
Take B5: in series [3] (setting [5]), the kcat was less than 8.3e-06 s⁻¹ and the kcat/Km is less than 0.0005 M⁻¹ s⁻¹.

B6: ROR2 ICD (Homo sapiens) (protein)
chain: CRNKQKASASTPQRRQLMASPSQDMEMPLINQHKQAKLKEISLSAVRFMEELGEDRFGKVYKGHLFGPAPGEQTQAVAIKTLKDKAEGPLREEFRHEAMLRARLQHPNVVCLLGVVTKDQPLSMIFSYCSHGDLHEFLVMRSPHSDVGSTDDDRTVKSALEPPDFVHLVAQIAAGMEYLSSHHVVHKDLATRNVLVYDKLNVKISDLGLFREVYAADYYKLLGNSLLPIRWMAPEAIMYGKFSIDSDIWSYGVVLWEVFSYGLQPYCGYSNQDVVEMIRNRQVLPCPDDCPAWVYALMIECWNEFPSRRPRFKDIHSRLRAWGNLSNYNSSAQTSGASNTTQTSSLSTSPVSNVSNARYVGPKQKAPPFPQPQFIPMKGQIRPMVPPPQLYVPVNGYQPVPAYGAYLPNFYPVQIPMQMAPQQVPPQMVPKPSSHHSGSGSTSTGYVTTAPSNTSMADRAALLSEGADDTQNAPEDGAQSTVQEAEEEEEGSVPETELLGDCDTLQVDEAQVQLEA
Turning to B6, in series [4], the kcat was less than 8.3e-06 s⁻¹ and the kcat/Km is less than 0.0005 M⁻¹ s⁻¹.

B7: ROR2 ICD (Homo sapiens; D482G) (protein)
chain: B6 chain with D55G
Take B7: in series [4], the kcat is less than 8.3e-06 s⁻¹ and the kcat/Km is less than 0.0005 M⁻¹ s⁻¹.

As a reminder, the Km is the concentration of substrate that gives half-maximal velocity. Usually kcat stands for the number of substrate molecules converted per active site and unit of time at saturation. Usually kcat/Km stands for the turnover number divided by the Michaelis constant.
